According to US20150344570A1 (published 2015):

T1: FcγRIIb extracellular domain with C-terminal His tag (human, UniProt P31994 43-217)
T1 construct: extracellular domain; Soluble receptor used as analyte in Biacore; also called FcgRIIb
T1 sequence (looked up): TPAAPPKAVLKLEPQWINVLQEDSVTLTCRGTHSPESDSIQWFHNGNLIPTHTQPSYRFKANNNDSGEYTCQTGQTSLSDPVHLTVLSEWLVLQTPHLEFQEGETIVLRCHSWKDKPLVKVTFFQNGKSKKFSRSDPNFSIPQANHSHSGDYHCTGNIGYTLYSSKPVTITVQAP

T2: FcγRIIa R (human, UniProt P12318 34-217)
T2 construct: extracellular domain; also called FcgRIIa R; FcγRIIa type R; not shown: His tag at the C terminus
T2 sequence (looked up): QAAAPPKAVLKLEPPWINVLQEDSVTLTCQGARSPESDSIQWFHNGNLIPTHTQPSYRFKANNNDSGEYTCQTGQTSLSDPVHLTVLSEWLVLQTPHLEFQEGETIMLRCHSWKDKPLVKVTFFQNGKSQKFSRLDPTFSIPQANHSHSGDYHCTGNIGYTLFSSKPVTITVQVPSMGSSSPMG

T3: FcγRIIb extracellular domain with C-terminal His tag (human, UniProt P31994 43-217)
T3 construct: extracellular domain; also called 2b; FcgRIIb
T3 sequence (looked up): T1 sequence (looked up)

B1: GpH7-A5/GpH7-B3 variant K326_02A/GpL16-k0 (antibody, human IgG1, kappa)
heavy 1: not shown
heavy 2: not shown
light: DIVMTQSPLSLPVTPGEPASISCQASESLVHSNRNTYLHWYLQKPGQSPQLLIYKVSNRFSGVPDRFSGSGSGTDFTLKISRVEAEDVGVYYCSQNTHVPPTFGQGTKVEIERTVAAPSVFIFPPSDEQLKSGTASVVCLLNNFYPREAKVQWKVDNALQSGNSQESVTEQDSKDSTYSLSSTLTLSKADYEKHKVYACEVTHQGLSSPVTKSFNRGEC
notes: Heterodimerized IgG1, mutation in the GpH7-B3 chain only; also called He Ab
B2: GpH7-A5/GpH7-B3 variant G237_11K/GpL16-k0 (antibody, human IgG1, kappa)
heavy 1: not shown
heavy 2: not shown
light: B1 light
notes: Heterodimerized anti-glypican-3 IgG1; mutation in one H chain only; also called He Ab
B3: GpH7-A5/GpH7-B3 variant G237_12R/GpL16-k0 (antibody, human IgG1, kappa)
heavy 1: not shown
heavy 2: not shown
light: B1 light
notes: as for B2
B4: GpH7-A5/GpH7-B3 variant G236_15Y/GpL16-k0 (antibody, human IgG1, kappa)
heavy 1: not shown
heavy 2: not shown
light: B1 light
notes: also called He Ab
B5: GpH7-A5/GpH7-B3 variant L235_03V/GpL16-k0 (antibody, human IgG1, kappa)
heavy 1: not shown
heavy 2: not shown
light: B1 light
notes: also called He Ab
B6: GpH7-A5/GpH7-B3 variant G236_04F/GpL16-k0 (antibody, human IgG1, kappa)
heavy 1: not shown
heavy 2: not shown
light: B1 light
notes: also called He Ab
B7: GpH7-A5/GpH7-B3 variant L235_18N/GpL16-k0 (antibody, human IgG1, kappa)
heavy 1: not shown
heavy 2: not shown
light: B1 light
notes: also called He Ab
B8: GpH7-A5/GpH7-B3 variant G236_16H/GpL16-k0 (antibody, human IgG1, kappa)
heavy 1: not shown
heavy 2: not shown
light: B1 light
notes: also called He Ab
B9: GpH7-A5/GpH7-B3 variant L235_05P/GpL16-k0 (antibody, human IgG1, kappa)
heavy 1: not shown
heavy 2: not shown
light: B1 light
notes: also called He Ab
B10: GpH7-A5/GpH7-B3 variant L235_14T/GpL16-k0 (antibody, human IgG1, kappa)
heavy 1: not shown
heavy 2: not shown
light: B1 light
notes: also called He Ab
B11: GpH7-A5/GpH7-B3 variant L234_19Q/GpL16-k0 (antibody, human IgG1, kappa)
heavy 1: not shown
heavy 2: not shown
light: B1 light
notes: also called He Ab
B12: GpH7-A5/GpH7-B3 variant L235_19Q/GpL16-k0 (antibody, human IgG1, kappa)
heavy 1: not shown
heavy 2: not shown
light: B1 light
notes: also called He Ab
B13: GpH7-A5/GpH7-B3 variant H268_06M/GpL16-k0 (antibody, human IgG1, kappa)
heavy 1: not shown
heavy 2: not shown
light: B1 light
notes: also called He Ab
B14: GpH7-A5/GpH7-B3 variant L234_16H/GpL16-k0 (antibody, human IgG1, kappa)
heavy 1: not shown
heavy 2: not shown
light: B1 light
notes: also called He Ab
B15: GpH7-A5/GpH7-B3 variant L235_12R/GpL16-k0 (antibody, human IgG1, kappa)
heavy 1: not shown
heavy 2: not shown
light: B1 light
notes: also called He Ab
B16: GpH7-A5/GpH7-B3 variant L235_11K/GpL16-k0 (antibody, human IgG1, kappa)
heavy 1: not shown
heavy 2: not shown
light: B1 light
notes: also called He Ab

Molecular target: T1, FcγRIIb extracellular domain with …
Test: SPR (Biacore), antibody captured, FcγR as analyte; binding relative to GpH7-A5/GpH7-B3/GpL16-k0 = 100

| He/Con_2b [control = 100] | Binder |
| --- | --- |
| 139 | B1 |

Molecular target: T4, FcγRIa extracellular domain with C-terminal His tag (human, UniProt P12314 16-292)
T4 construct: extracellular domain; Soluble receptor used as analyte in Biacore; also called FcgRI
T4 sequence (P12314 16-292): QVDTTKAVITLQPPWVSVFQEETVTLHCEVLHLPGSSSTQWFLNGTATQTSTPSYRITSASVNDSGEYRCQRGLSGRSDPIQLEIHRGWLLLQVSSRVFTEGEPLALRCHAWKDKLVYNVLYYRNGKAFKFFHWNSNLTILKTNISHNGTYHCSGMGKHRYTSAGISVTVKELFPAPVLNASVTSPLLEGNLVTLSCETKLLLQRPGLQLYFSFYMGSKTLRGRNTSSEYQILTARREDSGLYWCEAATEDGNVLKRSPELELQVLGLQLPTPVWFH
Test: as above

| He/Con_1a [control = 100] | Binder |
| --- | --- |
| 102 | B1 |

Molecular target: T2, FcγRIIa R
Test: SPR (Biacore T100), antibody captured on antigen peptide chip, FcγR as analyte; binding relative to GpH7-A5/GpH7-B3/GpL16-k0 = 100
Experimental: (§1) The heterodimerized antibodies He Abs in which one of the H chains was introduced with an alteration were assayed for their binding activities to each activating FcγR and inhibitory FcγR according to the method described in Example 4. […] The activating FcγRs in FIGS. 26, 27, 28, and 29 are FcγRIa, FcγRIIa (R), FcγRIIa (H), and FcγRIIIa, respectively.
(§2) Analysis of interaction between objective antibody and the FcγR was carried out using Biacore T100 (GE Healthcare). HBS-EP+ (GE Healthcare) was used as the running buffer, and the measurement temperature was set to 25° C. Chips produced by immobilizing the antigen peptide by the amine coupling method to a Series S Sencor Chip CM5 (GE Healthcare), or alternatively, chips produced by allowing preliminarily biotinylated antigen peptides to interact with and immobilize onto a Series S Sensor Chip SA (certified) (GE Healthcare) were used. Antibodies of interest were captured onto an antigen peptide-immobilized chip, and allowed to interact to each FcγR diluted with running buffer. To regenerate and repeatedly use the chip, the antibodies captured on the chip were washed off by reacting 10 mM glycine-HCl, pH 1.5.

| He/Con_2aR (IIaR binding) | Binder |
| --- | --- |
| 17.1 % of control | B2 |
| 24.2 % of control | B3 |

Molecular target: T5, FcγRIIIa extracellular domain with C-terminal His tag (human, UniProt P08637 17-208)
T5 construct: extracellular domain; also called 3a; FcgRIIIa
T5 sequence (P08637 17-208): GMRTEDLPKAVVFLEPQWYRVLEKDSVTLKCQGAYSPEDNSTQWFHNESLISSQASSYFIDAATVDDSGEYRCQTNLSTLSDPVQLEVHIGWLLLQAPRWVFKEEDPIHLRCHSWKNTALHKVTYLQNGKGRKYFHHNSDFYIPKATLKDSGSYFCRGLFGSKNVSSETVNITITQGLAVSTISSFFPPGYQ
Test: SPR; ratio of He/Con_3a (FcγRIIIa) to He/Con_2b (FcγRIIb)
Experimental: as §1, §2

| He_3a/2b (IIIa/IIb) | Binder |
| --- | --- |
| 3.06 | B4 |
| 1.48 | B5 |
| 2.21 | B6 |
| 1.23 | B7 |
| 1.54 | B8 |
| 1.3 | B9 |
| 1.62 | B10 |
| 1.32 | B11 |
| 1.65 | B12 |
| 1.22 | B13 |
| 1.34 | B14 |
| 4.29 | B15 |
| 6.06 | B16 |

Molecular target: T4, FcγRIa extracellular domain with …
Test: ratio He/Con_1a : He/Con_2b (FcγRIa over FcγRIIb), SPR (Biacore)

| He_1a/2b (Ia/IIb) | Binder |
| --- | --- |
| 0.73 | B1 |

Molecular target: T5, FcγRIIIa extracellular domain with …
Test: SPR, binding relative to GpH7-A5/GpH7-B3/GpL16-k0 = 100
Experimental: as §1, §2

| He/Con_3a | Binder |
| --- | --- |
| 121 % of control | B4 |
| 98 % of control | B5 |
| 87 % of control | B6 |
| 67.3 % of control | B7 |
| 43.1 % of control | B8 |
| 71.1 % of control | B9 |
| 75.8 % of control | B10 |
| 79.8 % of control | B11 |
| 70.5 % of control | B12 |
| 80.3 % of control | B13 |
| 79.5 % of control | B14 |
| 41.2 % of control | B15 |
| 38.1 % of control | B16 |

Molecular target: T3, FcγRIIb extracellular domain with …
Test: as above
Experimental: as §1, §2

| He/Con_2b | Binder |
| --- | --- |
| 39.5 % of control | B4 |
| 66.4 % of control | B5 |
| 39.3 % of control | B6 |
| 54.9 % of control | B7 |
| 27.9 % of control | B8 |
| 54.7 % of control | B9 |
| 46.8 % of control | B10 |
| 60.3 % of control | B11 |
| 42.6 % of control | B12 |
| 65.7 % of control | B13 |
| 59.4 % of control | B14 |
| 6.3 % of control | B16 |

Molecular target: T2, FcγRIIa R
Test: SPR (Biacore T100); He/Con_2aR divided by He/Con_2b (FcγRIIa R over FcγRIIb)
Experimental: as §1, §2

| He_2aR/2b (IIaR/IIb) [ratio] | Binder |
| --- | --- |
| 1.9 | B2 |
| 2.47 | B3 |
